# Experimental data taken from PMC5436742, “Structural models of the different trimers present in the core of phycobilisomes from Gracilaria chilensis based on crystal structures and sequences” (PLoS ONE, 2017).
# B1: Allophycocyanin αβ heterodimer from Gracilaria chilensis (complex)
# chain 1: MSIITKSIVNADAEARYLSPGELDRIKSFVLSGQRRLRIAQILTDNRELIVKQGGQQLFQKRPDVVSPGGNAYGEEMTATCLRDLDYYLRLVTYGIVAGDVTPIEEIGLVGVKEMYNSLGTPISGVAEGVRSMKNVACSLLAGEDSAEAGFYFDYTLGAMQ
# chain 2: MQDAITSVINAADVQGRYLDDNSLDKLRGYFQTGELRVRASATIAANAATIIKDSVAKALLYSDITRPGGNMYTTRRYAACIRDLDYYLRYATYGMLAGDPSILDERVLNGLKETYNSLGVPIGATIQAVQAMKEVTSSLVGPDAGKEMGVYFDYICSGLS
# modifications: phycocyanobilin bound to cysteine 81 | phycocyanobilin bound to cysteine 81; methyl-Asn71 (Asm71)
# notes: Allophycocyanin α subunit (gene apcA), Gracilaria chilensis; 161 residues; as the chain of m1; Allophycocyanin β subunit (gene apcB), Gracilaria chilensis; as the chain of m2; The αβ heterodimer is the unit that associates with itself into the trimer (αβ)3; also called APC; heterodimer αβ; source: purified from Gracilaria chilensis (method in S4 File)
# Biological target: the molecule itself
# Test: SEC; 50 μL of 1 mg/mL purified APC on Superdex200 HR/30, 5 mM phosphate buffer pH7, 0.5 ml/min, calibrated with BioRad standards, elution followed at 651 and 280 nm
protein,measurement,value
B1,stoichiometry N,3
